Data on two sequences can be found in patent publication US20090136940.

For this data set, the target named is T1, NF-kB p50 (NFKB1) (Homo sapiens) (UniProt P19838).
T1 sequence: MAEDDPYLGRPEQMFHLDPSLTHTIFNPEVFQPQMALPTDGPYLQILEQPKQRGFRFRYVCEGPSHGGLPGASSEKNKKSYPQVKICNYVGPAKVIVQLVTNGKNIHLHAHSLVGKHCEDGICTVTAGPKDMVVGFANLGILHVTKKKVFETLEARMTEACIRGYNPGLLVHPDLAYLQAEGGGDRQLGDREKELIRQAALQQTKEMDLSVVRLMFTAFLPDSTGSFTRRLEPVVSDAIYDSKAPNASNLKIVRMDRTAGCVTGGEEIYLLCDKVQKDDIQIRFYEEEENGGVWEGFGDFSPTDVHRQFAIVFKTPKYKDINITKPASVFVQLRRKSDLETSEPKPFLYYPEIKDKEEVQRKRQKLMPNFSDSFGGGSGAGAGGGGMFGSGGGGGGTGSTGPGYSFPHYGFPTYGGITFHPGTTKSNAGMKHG
Kind of data set: EMSA. The conditions noted are these: saturating p50 monomer (200 nM). On the technique in general: In EMSA bound probe runs differently from free probe, usually more slowly.

For the setting “internucleoside phosphotriester triethylene glycol amino linker after T12 of SEQ 2, truncated site”, “TGGAAAGCTTTTTACAGTT (double strand) [ODN4/Cy5.5-ODN5]” showed a binding signal (% fluorescence co-migrating with p50) of 63. Where the note is “internucleoside phosphotriester triethylene glycol amino linker after T8 of SEQ 1”, “CGGAAAGTCCCTCATAGCT (double strand) [I (ODN2)/Cy5.5-XIX (ODN3)]” displayed a binding signal (% fluorescence co-migrating with p50) of 94.
